Test results from paper PMC3445459.

Experiments:
[1] = molecular target: HIV-1 integrase E85F, 6xHis-tagged (HIV-1 (NL4-3))
[2] = molecular target: HIV-1 integrase E85F, 6xHis-tagged (HIV-1 (NL4-3)); remark: listed apart in the source
[3] = molecular target: HIV-1 integrase K103E, 6xHis-tagged (HIV-1 (NL4-3))
LEDGF/p75 = LEDGF/p75 (UniProt O75475); assay: AlphaScreen or HTRF; IN-LEDGF/p75 interaction assay as previously described (ref. 32), mutant IN proteins in place of WT; signal relative to WT IN
[4] = molecular target: HIV-1 integrase W108F, 6xHis-tagged (HIV-1 (NL4-3))

UniProt O75475, sequence (O75475 whole entry): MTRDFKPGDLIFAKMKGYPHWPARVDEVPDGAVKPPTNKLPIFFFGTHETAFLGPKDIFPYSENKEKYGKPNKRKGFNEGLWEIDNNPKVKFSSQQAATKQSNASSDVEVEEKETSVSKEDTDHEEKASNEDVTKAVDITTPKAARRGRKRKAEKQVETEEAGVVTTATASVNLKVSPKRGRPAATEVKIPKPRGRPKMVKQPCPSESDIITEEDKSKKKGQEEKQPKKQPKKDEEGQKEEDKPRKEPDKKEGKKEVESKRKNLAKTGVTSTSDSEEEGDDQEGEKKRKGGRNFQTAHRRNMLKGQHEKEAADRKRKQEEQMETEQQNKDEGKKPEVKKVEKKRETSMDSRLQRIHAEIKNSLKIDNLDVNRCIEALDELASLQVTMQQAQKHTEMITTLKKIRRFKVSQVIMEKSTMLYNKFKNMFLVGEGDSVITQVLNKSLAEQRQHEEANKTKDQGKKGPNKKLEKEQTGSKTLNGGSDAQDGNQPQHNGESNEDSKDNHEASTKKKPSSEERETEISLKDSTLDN

Substance: HIV-1 integrase E85F, 6xHis-tagged (enzyme)
- in vitro strand transfer activity with 21-mer DNA substrate, relative to WT IN [1]: 37 % of WT
- in vitro strand transfer activity with pre-processed 19-mer DNA substrate, relative to WT IN [2]: 1.6 fold of WT

Substance: HIV-1 integrase K103E, 6xHis-tagged (enzyme)
- in vitro strand transfer activity with pre-processed 19-mer DNA substrate, relative to WT IN [3]: 29 % of WT

Substance: HIV-1 integrase K103G, 6xHis-tagged (enzyme)
- interaction relative to WT IN (of the WT interaction) (LEDGF/p75): < 0.33
- percent of the WT interaction level (LEDGF/p75): 30 % of WT

Substance: HIV-1 integrase W108F, 6xHis-tagged (enzyme)
- in vitro strand transfer activity with pre-processed 19-mer DNA substrate, relative to WT IN [4]: 30 % of WT
